The source of these data is patent publication US20230416704A1, “LACTONASE AND STABILIZED MUTANTS THEREOF FOR TREATING FUNGAL INFECTIONS IN PLANTS” (MIGAL GALILEE RESEARCH INSTITUTE LTD., priority 2020, published 2023).

Data set [1] relates to P. expansum. The data set can be described thus: Pathogenicity assay in apples (EaAiiA).
Protocol: The lesion size of the treated apples was measured 3 days after inoculation with P. expansum. Mean values of 18 replicates are presented (**** p<0.0001, according to one-way ANOVA followed by Tukey-Kramer).
Pathogenicity assay in apples. P. expansum spores (50 spores/ml) were incubated in 1 ml LB medium/sterile water at 25° C. 300 rpm either alone or 2 μM EaAiiA, and apples were then inoculated and incubated in the same manner as described above. Enzyme incubated with 50 mM EDTA at 90° C. for 1 hour was used as a negative control (inactivated enzyme).
Data set [2] is described as follows: Enzyme kinetics analysis of EaAiiA with patulin. As to conditions: 0.05 μM EaAiiA, patulin 0-0.4 mM, pH 7.5, 100 μM ZnCl2.
Protocol: (6A) Michaelis-Menten kinetics analysis with 0.05 μM purified bacterial lactonase (EaAiiA), in activity buffer containing 100 mM Tris pH 7.5, 100 mM NaCl, 100 μM ZnCl2, at Error bars indicate standard deviation of three replicates for each treatment.
Enzyme kinetics analysis with patulin. EaAiiA activity (0.05 μM) with patulin was analyzed as follows: EaAiiA activity was measured by detecting the reduction in the UV absorbance (detected at 278 nm) of patulin at different concentrations (0-0.4 mM) in the presence of enzyme at a final concentration of 0.05 μM, in an activity buffer containing 100 mM Tris pH 7.5, 100 mM NaCl, 100 μM ZnCl2, in UV 96-well plates. An activity buffer was used as a negative control. The activity was monitored in a microtiter plate reader (BioTeK, Winooski, VT, USA). Reactions were performed as the concentration of organic solvent was lower than 1%. Vo initial rates were corrected for the patulin spontaneous hydrolysis background rate performed with an activity buffer. Kinetic parameters were obtained by GraphPad software as fitting initial rates directly to the Michaelis-Menten equation, standard deviations obtained from three independent measurements.

B1: EaAiiA: AHL lactonase encoded by Erwinia amylovora, metallo-β-lactamase fold (protein, listed as Erwinia amylovora)
chain: MNYHIIPVTAFAQNCSVIWCPETGEAALVDPGGDAQKIKHEIAALGLTVKQILLTHGHLDHVGAAAELAEHYDVPIVGPHKADKFWLDGLPQQSQMFGFDECAPLTPDRWLQEGEVVLVGNTVLEVLLCPGHTPGHIVFFERKARLLVSGDVIFSGGVGRSDFPQGSHQDLIASILNKLLPLGDDVTFIAGHGPMSTLGRERISNPFLQ
What is called kcat is the maximal rate divided by the concentration of active sites. What is called Km is the concentration of substrate that gives half-maximal velocity. For B1, the “effect of inactivated enzyme on inhibition of fungal colonization” value in data set [1] (EaAiiA inactivated by 90° C. and EDTA prior to incubation with spores) is recorded as “fully reduced the inhibition”. Besides, in data set [1] (spores incubated with 2 μM EaAiiA prior to apple inoculation, third day after inoculation), the “decline of colonized area” value stood at 85%. Further, in data set [2], the kcat was determined as 5.426 ± 1.5 s⁻¹. Moreover, in data set [2] (read-out: estimated KM), the Km was 764 ± 284 µM.
